This passage reports IC50 of neutralisation of MERS-CoV pseudovirus (HeLa-hDPP4 cells) results from PMC13480645.

This assay addresses MERS-CoV S2 stem helix peptide (MERS-CoV).

S2P6 (antibody), sequence (VH): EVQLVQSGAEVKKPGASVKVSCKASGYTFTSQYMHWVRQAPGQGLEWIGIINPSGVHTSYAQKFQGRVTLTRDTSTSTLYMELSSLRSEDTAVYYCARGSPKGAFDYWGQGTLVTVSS
S2P6 (antibody), sequence (VL): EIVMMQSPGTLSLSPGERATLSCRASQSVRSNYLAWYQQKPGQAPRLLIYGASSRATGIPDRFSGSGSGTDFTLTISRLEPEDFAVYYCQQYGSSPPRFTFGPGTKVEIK

For S2P6 (antibody), the IC50 of neutralisation of MERS-CoV pseudovirus (HeLa-hDPP4 cells) was determined as 8.37 µg/mL.
